Reference: the RNAGym collection of RNA variant scans (doi:10.1073/pnas.2313332121)

B1: TPR t1 (parent)
chain: GACCAAUCUGCCCUCAGAGCUCGAGAACAUCUUCGGAUGCAGAGGAGGCAGGCUUCGGUGGCGCGAUAGCGCCAACGUCCUCAACCUCCAAUGCAUCCCACCACAUGAUGAUGCCUGAAGAGCCUUGGUUUUUUG

Variants of: B1
Assay: polymerase ribozyme fitness, log enrichment relative to wild type (log ratio); higher = more active; in vitro selection for triplet polymerase activity
Procedure, shortened: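 Frozen incubation at −7 °C formed the core of a single, triplicate in vitro selection round applied to PCR-built, transcribed mutant libraries of each subunit of a heterodimeric triplet polymerase ribozyme. Extended constructs were gel-excised, captured with streptavidin beads and amplified by RT-PCR, and input and output libraries were Illumina-sequenced with a filter of ≥10 input reads and ≥1 read per output. Fitness is the logarithm of genotype enrichment relative to wild-type enrichment, with inverse-variance-weighted replicate averaging, and the logarithm is base 2.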

| Variant | polymerase ribozyme fitness (log ratio) |
| --- | --- |
| G63A U116C C123U | -4.18 |
| C62U U78G | -0.0458 |
| C62G G128A | -2.8 |
| G63A C86U | -0.411 |
| G63A C86A | -2.33 |
| G63A G71C | -3.85 |
| C62U G117C G128A | -6.43 |
| G61U U92G | -2.97 |
| C62U C123A | 0.98 |
| G61U G93U | -0.532 |
| C62A C94A | -2.2 |
| G63A G93C G113U | -5.1 |
| C62U C88A | -0.404 |
| G63A U133G | -1.23 |
| C62G A100U G120U | -3.32 |
| G63A G120A G135C | -0.591 |
| G63A C80U | -1.54 |
| G61U U96G U129G | -1.29 |
| C62A A105C | -3.71 |
| C62A A105U | -3.07 |
| G61U U81C C101G | -2.09 |

| Variant | polymerase ribozyme fitness (log ratio) |
| --- | --- |
| C62G U78C C79G A111G | -3.51 |
| G63A A118U | 0.468 |
| G63A A83C C102U G113U | -7.43 |
| C62A C72G G120U U129G | -3.88 |
| G61U U81C C82U A121C | 0.807 |
| C62G U78C U96C | -3.37 |
| C62A C124U | 1.51 |
| C62A C124A | 1.01 |
| C62G U96A C123U | -3.13 |
| C62U C64U C102A U126G | -4.31 |
| G63A C79G U109G | -7.2 |
| C62G C102U | -4.74 |
| G63A C104U C114G | -4.92 |
| C62G C82A | -1.67 |
| C62U C73U U112G | 0.712 |
| G63A A95C | -2.22 |
| G63A A95U | -0.563 |
| C62U G69A C97G G110C | -6.75 |
| C62U C101U | -0.317 |
| C62G C89A | -4.23 |
| C62U C85G U87C | -2.53 |

| Variant | polymerase ribozyme fitness (log ratio) |
| --- | --- |
| C62A G122A | -1.85 |
| C62A G122U | 0.143 |
| G63A C82U U126G | -2.36 |
| C62A C104A G113A | -4.4 |
| C62U G71C G120U A121C | 0.341 |
| C62U A74U G128C | -3 |
| C62G C73U A74U U109G C124A | -6.92 |
| G61U U126A | -1.86 |
| G63A U87G A95U | -1.19 |
| C62U C94A | -1.69 |
| C62U U92C U116C A119G | 0.218 |
| C62U A74G C88A | -3.21 |
| C62A U78C | -1.1 |
| C62U A90C G135U | -2.45 |
| C62G C64U | -3.51 |
| G63A C124U | 0.738 |
| C62U A121C | 1.11 |
| C62U A121U | 1.08 |
| C62A U109C | -4.04 |
| C62A U109G | -6.74 |
| G63A A68G | -3.95 |

| Variant | polymerase ribozyme fitness (log ratio) |
| --- | --- |
| G63A C88U C97U G113C | -4.04 |
| C62U U78C U96G U129C | -0.314 |
| C62A A118U | -1.56 |
| C62U C94U C98G G110U | -6.52 |
| C62G G71U C97A A119G | -4.38 |
| C62A A119C C123U | -2.98 |
| G63A A84C | -0.832 |
| C62A U87A | -1.8 |
| C62A G117C A118C U131C | -5.12 |
| C62A U78C U112A U116A | -3.11 |
| G63C A91G G113A | -2.9 |
| G63A C104U G120A G127A | -0.508 |
| G61U U112A U130A | 1.31 |
| G61U U78C C88U U130G | -0.822 |
| G63A U130C | -0.399 |
| G63A U130G | -0.913 |
| C62U U112G | -0.737 |
| C62U U112A | 1.02 |
| C62U C124A | 1.84 |
| C62U C82U C124A | 1.29 |
| C62U U78C C85A U92C C97A | -6.24 |
